This is an account of results in article PMC10454150, “Molecular Mechanism of a FRET Biosensor for the Cardiac Ryanodine Receptor Pathologically Leaky State” (International Journal of Molecular Sciences, 2023).

Ends that are not written are not given here. QXL520 = non-fluorescent dark acceptor (quencher) probe

Assay [1] deals with type 2 ryanodine receptor (RyR2) channel in cardiac SR membranes (pig (endogenous in porcine heart SR)). As to the kind of experiment: FRET or BRET; as a1 but 300 uM Ca2+, no DPc10.
Assay [2] shares this target. Description: FRET or BRET; as a1, 30 nM Ca2+, SR pre-treated with 50 uM unlabeled DPc10 for 60 min; apparent affinity. For orientation: Bioluminescence resonance energy transfer reports proximity on the nanometre scale.
In assay [3] the target is T1, type 2 ryanodine receptor (RyR2) channel in cardiac SR membranes (pig (endogenous in porcine heart SR), UniProt A0A5G2R1W3 1-4900).
T1 construct: type 2 ryanodine receptor (RyR2), pig heart; homotetrameric assembly of 565-kDa protomers; 'intact RyR2 in cardiac SR vesicles'; In every assay RyR2 stood in native SR membranes and was preloaded with a donor-labelled FKBP12.6 (D-FKBP); also called cardiac ryanodine receptor; source: endogenous, SR vesicles isolated by differential ultracentrifugation of porcine ventricular tissue; residual …
Description: FRET or BRET; as a6 but 300 uM Ca2+, no CaM; Hill fit. The conditions noted are these: one partner purified.

Assay [4] addresses T1, type 2 ryanodine receptor (RyR2) …. As to the kind of experiment: FRET or BRET; FRET from D-14-FKBP on RyR2 in cardiac SR to A-DPc10, series of [A-DPc10]; Ca2+ not stated for this experiment; Hill fit. Conditions: one partner purified.
Assay [5] shares this target. Description: FRET or BRET; FRET from D-49-FKBP on RyR2 in cardiac SR to A-DPc10, series of [A-DPc10]; Ca2+ not stated for this experiment; Hill fit. Conditions: one partner purified.
The target is the same in assay [6]. As to the kind of experiment: FRET or BRET; FRET from D-85-FKBP on RyR2 in cardiac SR to A-DPc10, series of [A-DPc10]; Ca2+ not stated for this experiment; Hill fit. The conditions noted are these: one partner purified.
Assay [7] has the same target. Description: FRET or BRET; as a6, 30 nM Ca2+, pre-incubated 40 min with unlabeled CaM (1 uM by the legend, 30 uM by the text); apparent affinity; Hill fit. The conditions noted are these: one partner purified.
For assay [8] the target is unchanged. Description: FRET or BRET; as a6 but 300 uM Ca2+, pre-incubated 40 min with unlabeled CaM (1 uM by the legend, 30 uM by the text); apparent affinity; Hill fit. Conditions: one partner purified.
The target is the same in assay [9]. Description: FRET or BRET; FRET from D-32-FKBP (loss-of-inhibition variant) on RyR2 in cardiac SR to A-DPc10, series of [A-DPc10]; Ca2+ not stated for this experiment; Hill fit. Conditions: one partner purified.
For assay [10] the target is unchanged. As to the kind of experiment: FRET or BRET; FRET from D-FKBP (labelled position not stated for this experiment) on RyR2 in cardiac SR to A-DPc10 (QXL520), series of [A-DPc10]; 30 nM Ca2+, no CaM; Hill fit. Conditions: one partner purified.
The target is the same in assay [11]. The description is as above. Conditions: one partner purified. The source holds these as a separate data set.

In assay [1], “acceptor-labeled calmodulin (A-CaM), Alexa Fluor 555 at a cysteine substituted at position 34 (natural protein)” displayed a fold higher affinity in 300 uM Ca2+ against 30 nM Ca2+ of 2.7 fold. Besides, the fold decrease of apparent affinity with 50 uM DPc10 against no DPc10 in assay [2] came to 4 fold.

B1: acceptor-labeled DPc10 (A-DPc10), QXL520 at the N-terminus (peptide)
peptide: QXL520-GFCPDHKAAMVLFLDRVYGIEVQDFLLHLLEVGFLP
notes: also called acceptor-DPc10; source: synthetic peptide (AnaSpec)
Turning to B1, the Kd is 13.2 µM in assay [3]; 10 µM in assay [4]; 9.9 µM in assay [5]; 10.4 µM in assay [6]; 14.6 µM in [7]; 33.9 µM in [8]. Also, the Kd came out at 13.1 µM in assay [9], 10.3 µM in [10] and 10.4 µM in assay [11].
